Data on 167 variants can be found in the RNAGym collection of RNA variant scans (doi:10.7554/elife.90254).

The chains are these.
B1: OR4K15 (parent)
chain: GUUAACGGUCAUAGGCCAUGGAAACUAGGAGCACCAUUUCGCUGCCAGUGAAGAAAUGAACAAAGAAAAUCUGGGCCAGGCAGGCAUCAAAAGAAAUAGUCUUGCGCUCAACCAGAAAGUCUGUAAUCAUUUUAAGGGUA

In this data set the parent is B1. Nature of the data set: self-cleavage, relative activity (ratio to wild type); higher = more cleavage; in vitro, sequencing; the parent is a self-cleaving ribozyme.
Turning to A55G A111U, the self-cleavage was 0.21.

As to A67C, the self-cleavage came to 1.83.

Turning to A110C U122A, the self-cleavage is 0.24.

In the case of U72A A78G, the self-cleavage is 0.05.

C35U C88A: the self-cleavage is 1.16.

Turning to U100C A110C, the self-cleavage came out at 1.12.

Take G29A A129G: the self-cleavage worked out at 1.59.

As for G15A A64U, the self-cleavage was 1.37.

On to G99A C113U, for which the self-cleavage is 0.05.

Turning to U38A U103C, the self-cleavage amounted to 0.64.

Take G8A A27G: the self-cleavage was 1.84.

As for A18G A140G, the self-cleavage stood at 0.55.

A24U A117G: the self-cleavage amounted to 1.85.

Turning to U103C A117G, the self-cleavage was 0.71.

A68U U132G: the self-cleavage is 0.9.

Turning to U3A A92G, the self-cleavage was found to be 1.3.

With U12C U102A, the self-cleavage turned out to be 1.94.

With U9A A116G, the self-cleavage was determined as 0.45.

As for A90G U120C, the self-cleavage is 0.58.

For the variant G29A A134G, the self-cleavage was 0.51.

In the case of U49C A78G, the self-cleavage was determined as 0.2.

Regarding A69C A90G, the self-cleavage came to 0.37.

Turning to G29A A86G, the self-cleavage turned out to be 1.65.

As for A36U U120C, the self-cleavage turned out to be 1.34.

Consider A52U A117G, for which the self-cleavage was 1.11.

Consider U72A U122C, for which the self-cleavage worked out at 0.12.

Take A54U A129G: the self-cleavage worked out at 0.88.

In the case of U39A A96G, the self-cleavage was 1.56.

As to A96G G136A, the self-cleavage amounted to 2.06.

On to A110G A135U, for which the self-cleavage came to 0.12.

As for C42U A91G, the self-cleavage came out at 1.09.

In the case of G14C A89G, the self-cleavage was 2.26.

Turning to A63G U131C, the self-cleavage was found to be 1.2.

Consider A60G C71U, for which the self-cleavage turned out to be 0.1.

As for U57C A140U, the self-cleavage was 1.78.

For the variant C42U A118G, the self-cleavage was determined as 0.7.

For G15A U122C, the self-cleavage came out at 0.95.

For A59G A126U, the self-cleavage is 1.27.

Consider A64G U72C, for which the self-cleavage was 0.27.

In the case of A67G U102A, the self-cleavage was 1.3.

On to A27U C61U, for which the self-cleavage came out at 0.58.

Regarding U57A A64G, the self-cleavage stood at 1.32.

Regarding A22G A69U, the self-cleavage is 1.28.

C45G A90G: the self-cleavage was determined as 1.2.

For G41A A82U, the self-cleavage stood at 0.14.

Regarding U39C U49C, the self-cleavage amounted to 0.91.

U57C G137C: the self-cleavage was 0.73.

For the variant A60U U130C, the self-cleavage came out at 1.22.

Turning to A67G A125G, the self-cleavage was 0.57.

For the variant C16U G73A, the self-cleavage turned out to be 0.15.

Regarding U19G A78C, the self-cleavage turned out to be 0.39.

Take C17U A66G: the self-cleavage stood at 1.68.

In the case of A92G U132G, the self-cleavage is 1.04.

As to A54G G84A, the self-cleavage is 2.33.

For the variant A91G C128A, the self-cleavage was determined as 0.44.

For A30G U127C, the self-cleavage was 0.97.

Regarding U3C U103A, the self-cleavage amounted to 0.64.

Turning to A23U C32U, the self-cleavage was determined as 2.28.

Consider G28A U120C, for which the self-cleavage came to 1.28.

A67U U100G: the self-cleavage came to 1.34.

On to A59G C71U, for which the self-cleavage was determined as 0.22.

A52G A98U: the self-cleavage came to 2.16.

For A13U U127C, the self-cleavage is 0.75.

For the variant U2A U26C, the self-cleavage stood at 0.99.

For G14A A90C, the self-cleavage amounted to 0.98.

Consider A63G U72A, for which the self-cleavage is 0.33.

Turning to U26A U122A, the self-cleavage was 0.73.

Consider U102C G123C, for which the self-cleavage is 1.33.

A94U U100C: the self-cleavage was found to be 2.56.

On to A36G C112U, for which the self-cleavage came to 0.03.

For A47G A64U, the self-cleavage was 1.26.

For C17U A129G, the self-cleavage was determined as 0.43.

Consider C34U A129G, for which the self-cleavage came out at 0.51.

Take C35A C121A: the self-cleavage was 1.53.

For the variant U108C A117G, the self-cleavage turned out to be 0.01.

Regarding A22G U132C, the self-cleavage is 1.28.

For C85U A96U, the self-cleavage stood at 1.58.

On to C25U A82G, for which the self-cleavage was determined as 0.05.

Consider U12A A24G, for which the self-cleavage turned out to be 0.69.

For the variant U3C U122C, the self-cleavage was found to be 1.32.

Take A22U A118U: the self-cleavage was determined as 0.64.

Regarding G138U, the self-cleavage worked out at 1.69.

In the case of A69G G79U, the self-cleavage turned out to be 0.1.

Regarding U43A A60U, the self-cleavage turned out to be 1.88.

Consider U9A A60G, for which the self-cleavage was found to be 0.57.

Consider U38C A66G, for which the self-cleavage was 1.97.

Consider A60U A89U, for which the self-cleavage was 1.68.

On to A116G A140U, for which the self-cleavage was determined as 0.92.

Take A56U A69U: the self-cleavage was 0.67.

On to A67G A86U, for which the self-cleavage turned out to be 2.13.

For A4G A135G, the self-cleavage is 1.18.

For G31C U108C, the self-cleavage amounted to 0.03.

As for A18G U127C, the self-cleavage was 1.53.

Take C112G U120A: the self-cleavage was 0.01.

As to U37C G79U, the self-cleavage amounted to 0.12.

As for G1A A18G, the self-cleavage came to 1.58.

For A18G U49A, the self-cleavage came out at 1.54.

For the variant A69G U100G, the self-cleavage amounted to 1.94.

A51U A64U: the self-cleavage was 1.15.

Turning to A22G A117G, the self-cleavage worked out at 1.68.

As for C16G A68G, the self-cleavage came out at 0.69.

Consider G7U U38C, for which the self-cleavage was determined as 0.4.

For the variant A90C A118G, the self-cleavage turned out to be 1.04.

In the case of G20A C121U, the self-cleavage was 2.49.

Consider A78C C128U, for which the self-cleavage came to 0.29.

Take U72C A82U: the self-cleavage was 0.08.

As to A24G G123A, the self-cleavage amounted to 1.48.

Take A96G C121U: the self-cleavage worked out at 2.57.

Consider U49C A96U, for which the self-cleavage is 1.92.

For the variant A89G U139G, the self-cleavage is 1.4.

With A59U A86U, the self-cleavage came out at 1.92.

As to G74U, the self-cleavage was found to be 0.05.

In the case of A66U A91G, the self-cleavage worked out at 0.65.

Regarding U2A U102A, the self-cleavage came to 1.51.

On to C77U A129G, for which the self-cleavage amounted to 1.77.

Turning to A64G A125U, the self-cleavage was determined as 2.92.

C107G U108A: the self-cleavage was found to be 0.01.

On to A91C U120C, for which the self-cleavage was found to be 0.94.

A55G U72G: the self-cleavage is 0.25.

With U124A U131C, the self-cleavage amounted to 0.36.

On to U72C U122C, for which the self-cleavage was determined as 0.03.

In the case of U57C A129G, the self-cleavage amounted to 1.43.

Regarding C40U A118G, the self-cleavage amounted to 1.21.

G84U C88U: the self-cleavage is 0.52.

With A13G A140G, the self-cleavage was 0.62.

As to U87G U100A, the self-cleavage came out at 0.06.

As to C71U, the self-cleavage came out at 0.17.

With A22G U72A, the self-cleavage is 0.49.

Take G79A A94G: the self-cleavage worked out at 0.15.

Take A78G G84A: the self-cleavage was 0.24.

Consider A47G A55U, for which the self-cleavage worked out at 0.19.

Turning to A54G U122G, the self-cleavage is 2.7.

For G48U A94G, the self-cleavage stood at 0.54.

On to A23U A110U, for which the self-cleavage came to 0.93.

C81A U122C: the self-cleavage is 0.22.

Take U39C A67U: the self-cleavage turned out to be 1.9.

For the variant A11U A62C, the self-cleavage stood at 0.99.

With U9A A36G, the self-cleavage was determined as 1.59.

Regarding A63U U132C, the self-cleavage was 1.98.

For the variant A90G G119A, the self-cleavage is 0.36.

On to G7U C77A, for which the self-cleavage was 0.23.

Turning to U43C A117U, the self-cleavage came to 1.17.

Regarding A47G U70A, the self-cleavage came out at 0.83.

In the case of A30U U87C, the self-cleavage was found to be 0.96.

Regarding A82U A114G, the self-cleavage came to 0.03.

A54G U108A: the self-cleavage was determined as 0.02.

Turning to A86U A96G, the self-cleavage stood at 1.68.

Turning to C34U U130C, the self-cleavage is 1.44.

A4U U70C: the self-cleavage was found to be 0.89.

For the variant U39A A91U, the self-cleavage was 0.94.

As for C46U G74A, the self-cleavage worked out at 0.32.

For the variant A5C U100C, the self-cleavage was found to be 1.25.

For C42A C45A, the self-cleavage is 1.75.

As for A51G A55G, the self-cleavage amounted to 0.97.

On to U2A A22U, for which the self-cleavage was found to be 0.88.

As to U70G U127C, the self-cleavage worked out at 0.57.

In the case of U132G, the self-cleavage worked out at 0.89.

With A95U A117G, the self-cleavage turned out to be 2.29.

Consider A67G G137A, for which the self-cleavage was found to be 1.67.

A18G A64G: the self-cleavage was 1.11.

A96C U100C: the self-cleavage was 2.01.

Take U39A U43A: the self-cleavage was found to be 1.66.

With U57C A95U, the self-cleavage came out at 1.28.

On to A22G A89G, for which the self-cleavage was 0.62.

As for A62G A90G, the self-cleavage was 0.54.

Turning to A13C A51U, the self-cleavage stood at 1.65.

Take A82G A111U: the self-cleavage came out at 0.09.
